According to PMC9170038, “Crowdsourced RNA design discovers diverse, reversible, efficient, self-contained molecular switches”:
Where a chain is given by its changes, count along the chain named.

B1: Eterna 7697814 (Same State - Tryptophan B) (ssRNA)
RNA: AGUAGUUGGACGGCCGCCACUGGAACAGCUUUGCCAAAGGCAGAGCACUAGAGUGAUGUUCUAGCUAGGACCGGGUCCAACUACA
B2: Eterna 7710185 (Exclusion - Tryptophan A) (ssRNA)
RNA: AGCUCGCAUCCUCUAGCGUCAAAGACGCCUCGAGGACCGGUACGGCCGCCACUCGAGAUGAGGAUCACCCAUCUCAAAGCGAGCA
B3: Eterna 7710586 (Same State - Theophylline B) (ssRNA)
RNA: UCUGGUAUAUCUGAUACCAGAGUAUAGUAUCAAUUGCAUAUCCGCAGUGAUGUUGCGGAACUCCCUUGGCAGCAGAUCUAUCUCU
B4: Eterna 7673438 (Same State - Arginine B) (ssRNA)
RNA: UGUAUGGACUGAAGGAGCGGGUUGAUAUCAUGAGGAUCACCCAUGGAAAAGGCGAAAGCCGCCCAGGUAGGUCGCAGUCCAUACU
B5: Eterna 7673392 (Same State - Arginine B) (ssRNA)
RNA: B4 RNA with U28A, A30C, C40U, U44G, G46U, G61A
B6: Eterna 5503477 (Same State 1) (ssRNA)
RNA: AAGAAACAUGAGGAUCACCCAUGUAAGAUAAACACAGGAUAUGCGAAUAAAAUAAAUAAAGCAGAAGGGUGAAGAA
B7: Eterna 15969 (Sensor v3, turn-off variant 2) (ssRNA)
RNA: AAGUACCGUCACGAUAGUGAUGGUACAACAAGCAAAUGUACAUGAGGAUCACCCAUGUCCUCUUUUGCUCGUCUUGU
B8: Eterna 7770355 (Exclusion - Tryptophan A) (ssRNA)
RNA: GGUGUUGUUUGUGCUGUUUUCCUCGUUCCUCGAGGACCGGUACGGCCGCCACUCGAGUGAUGUUUGGGUAGCGAUCCUUGUUAGU
B9: Eterna 1023 (Exclusion - FMN A) (ssRNA)
RNA: GUCCAUGUCCUCAUUCGUGCACUGGACACCAAGGAUAUGUUUAUGGACAGAAGGUGGUUGGGUCAGUGAUGUUGAUAUAAUUAGU
B10: Eterna 6407693 (Inverted Exclusion NG 2) (ssRNA)
RNA: UCAGGCUUCGAGAAGGACAUGAAUCGUAGCAUUGCUACGAUGAAUUAUACAUGAGGAUCACCCAUGUAGGAUAUCGGAGUCUGC
B11: Eterna 6447203 (Exclusion NG 2) (ssRNA)
RNA: AUCAGCUCGUCAGGAUAUACGUAACUGCGUCAGCAGUGUGGUAAGAUCACAUGAGGAUCACCCAUGUAGAAGGGACGAGCUGAU
B12: Eterna 6121278 (Same State NG 1) (ssRNA)
RNA: UCACUCAAGUUAGGAUAUGGAUCGGAAAACGAUCCAGAAGGAACAUGAAAACAUGAGCAUCAGCCAUGUUCCAGAAACGAGUGA
B13: Eterna 6121478 (Same State NG 1) (ssRNA)
RNA: B12 RNA with U1G, A29C, U46C, G47A, A49U, A66G, A84C
B14: Eterna 7692142 (Exclusion - FMN A) (ssRNA)
RNA: UUAUAUACGAGUGAUGUUCGUUAUUUAUCAGAGGAUAUGCUUAAAUGCAGAAGGCUGUUUUUCUAUUUGAUAUUAAAUUUUAUAA
B15: Eterna 7730540 (Same State - FMN A) (ssRNA)
RNA: AGCGAGUGAUGUUCGCUGAUCAUGUGAAGUUAGGAUAUAUACUUGCAUAGAAGGAACUAUUACAUGACAUUAGAGGCAGUAGUUC
B16: Eterna 6117498 (Same State NG 2) (ssRNA)
RNA: AAAACAUACCGAGGAUAUUCAUAUAAUAAAUAAACAUGAGGAUCACCCAUUUGGCAAAAGCCUAGGGAGAAGGCGGAAUGCUAA
B17: Eterna 6374082 (Exclusion NG 1) (ssRNA)
RNA: CGGUGACGUGUAGGAUAUGGCGCUGGGUUUUGGCCAGAAGGACAUGAGGAUCACCCAUGUGGUAGAGGGCUGGCGGCCGCCCGU
B18: Eterna 7710481 (Same State - Theophylline B) (ssRNA)
RNA: GGAGGUUGGUGCGAUACCAGACCAGCAGUGAUGUUGCGCCAAAGUGAGUGAUGUUCACCGGUCCCUUGGCAGCGCAUUCCUUUAG
B19: Eterna 7734801 (Same State - FMN B) (ssRNA)
RNA: UGUACCGAGUCAGGAUAUGUCGUCGAAAGACGAAUCCUAGUGAUGUUAGGGAUCUGCGAAAGCAGUGCAGAAGGGACUUGGUACU
B20: Eterna 12594 (Exclusion 3) (ssRNA)
RNA: AACGAUCUAGGAUAUACAUGAGGAUCACCCAUGUAAGAGCCCAAACCAGGCUCCCUCUGUAGAAGGAGGUCAAA
B21: Eterna 6398795 (Exclusion NG 1) (ssRNA)
RNA: CCUGCACCUCAAGGAUAUCCAGUCGAAACGACUGGAGAAGGUGAGGAUCACCCAUCUAGCCUGACGAAAGUCAGGCAUGCAGGA
B22: Eterna 6421601 (Exclusion NG 3) (ssRNA)
RNA: GGUACUCAAAGAGUACCAAAACGAACAUGAGGAUCACCCAUGUAGGAUAUGCUACUCAAAGAGUAGCAGAAGGACAUGUGCCUA
B23: Eterna 6063240 (Exclusion 4) (ssRNA)
RNA: GUUUCGUCAGGAUAUGUGGCUUCGAUCGUGCGAAGAAGGCUACAGAAGGCACAUGAGGAUCACCCAUGUUCGUC
B24: Eterna 5973727 (Sensor, turn-off variant 1) (ssRNA)
RNA: CCGUGCACGCUGCGCUCCUACAUGAGGAUCACCCAUGUGGUCCGGUGGCGUGGGUCGCCGGACUUGGCUCGUCUUGU
B25: Eterna 7684764 (Exclusion - Tryptophan B) (ssRNA)
RNA: AAUAAAAUCACGGCCGCCACUGAUGUUAAUAUUAGCAGUGAUGUUGCUAUGUCGUUUUUAUUUAACAGGACCGGGUGAAUAUUUA
B26: Eterna 8125 (Exclusion 4) (ssRNA)
RNA: GUGAAGUGAGGAUAUACGAGAGAGGCUGAACCGGACGAGAAGUAGAAGGCACAUGAGGAUCACCCAUGUACGGG
B27: Eterna 7696031 (Exclusion - Tryptophan B) (ssRNA)
RNA: UGAUACCAGACGGCCGCCACUACACCAGUCAAAGACUGGAUGUGAAAUUCGACCAGUGAUGUUGGUAGGACCGGGUCUGGUAUCU
B28: Eterna 7692481 (Exclusion - Theophylline B) (ssRNA)
RNA: UUAGUUGAAAGUGAUACCAGACGAGUGAAGGGAAGAAAUUAAGUUGGAGUGAUGUUCCGCGUCCCUUGGCAGCACUUUGUAAUUU
B29: Eterna 7632613 (Same State - Theophylline B) (ssRNA)
RNA: GGGUGUGAUCCGGAUACCAGCGAACAUGAGGAUCACCCAUGUGACCUGAGAUCGGCUCUACGCCCUUGGCAGCCGCGGUCGCAGG
B30: Eterna 7697025 (Exclusion - Arginine B) (ssRNA)
RNA: UGAUAGGACAGAAGGAGCGGAAGUGAUGUUUCCAAUGGAUAAAAGGUGUCAAAGACACCCUUCCAGGUAGGUCGCUGUCCUAUCU
B31: Eterna 11606 (Exclusion 1) (ssRNA)
RNA: UUUUAACAUGAGGAUCACCCAUGUGAGGAUAUCGAUAUUUUUAUUAAUAUUAAUAAAACGAGAAGGCACAUUUU
B32: Eterna 6428636 (Exclusion NG 3) (ssRNA)
RNA: AGGUAUCCUGAGAAAUUUCUCCACAUGAGGAUCACCCAUGUAGAGGAUAUCGACGCUGUGCGGUUCGAGAAGGCUACACUAAAA
B33: Eterna 6150223 (Exclusion NG 3) (ssRNA)
RNA: AUUAUGACCGAGUUAUGCUUCAAAACAUGAGGAUCACCCAUGUAGGAUAUCAGCACGAUAAGUGCUGAGAAGGACAUCUCGGUC
B34: Eterna 6429242 (Inverted Exclusion NG 1) (ssRNA)
RNA: UCCGCAUCUGAGAAGGGAUCUCCGCGGAAGGGAUCAGGAUAUCGGACAUGAGGAUCACCCAUGUGCCGUUAAAGGACACCUGGU
B35: Eterna 7696419 (Exclusion - Arginine B) (ssRNA)
RNA: AAUGUACAGGGAAGGAGCGUAGUCCAGUGAUGUUGGAGUUAAAUACCAGUGAUGUUGGUUAUACAGGUAGGUCGCCCUAAAGUGC
B36: Eterna 6458016 (Inverted Same State NG 1) (ssRNA)
RNA: CGCUACACCCAGAAGGACAUGAGGAUCACCCAUGUAGGAUAUGGGAGACACAGUCCCAUGUAGAGAAAUUACGCUAGUGUAGCG
B37: Eterna 6443507 (Inverted Exclusion NG 1) (ssRNA)
RNA: CGAACCAUGUAGAAGGCUGUCUUAAAAUAGGACAGAGGAUAUACAUGAGGAUCACCCAUGUACUCCUUUAAAAGGUUCGAAAUA
B38: Eterna 9265 (Exclusion 1) (ssRNA)
RNA: CCGUCACAUGAGGAUCACCCAUGUCAGGAUAUCUAUCAUAGCAUCGAAAGAUGCGGGUAGAGAAGGGACUAUCC
B39: Eterna 7755228 (Same State - Theophylline A) (ssRNA)
RNA: AAAAUAAAUCAGUGAUGUUGGUAUCCGGAUACCAGCGAUAAUCAUCGCCCUUGGCAGCCGCGGACGUACAAAAUAAGUACGUCCU
B40: Eterna 6454516 (Inverted Same State NG 3) (ssRNA)
RNA: AAACACGGACAUGAGGAUCACCCAUGUGGCGAAAGCCUUGGAAGAAGGCCGAUUGCAAAGCAAUCGGAGGAUAUUCAUACCGUG
B41: Eterna 7687503 (Exclusion - Theophylline A) (ssRNA)
RNA: UGUAUGUGUCAGCGAGUGAUGUUCGACGAUACCAGACUCGAUAGAGUCCCUUGGCAGCGUAAUGCAUGCCAAACUGGCACAUACU

molecular target: MS2 coat protein, dlFG mutant (Escherichia phage MS2, UniProt P03612, del68-81insG); assay: 4 mM Mg2+; no ligand; RNA-MaP array; 100 mM Tris-HCl pH 7.5, 80 mM KCl, 4 mM MgCl2, 0.1 mg/mL BSA, 1 mM DTT, 0.01 mg/mL yeast tRNA, 0.01% Tween-20; protein 1.5 nM to 3 uM; 37 C (Table S3); settings: chain copies: 2; label: tethered by stalled RNA polymerase

| Binder | Kd [nM] |
| --- | --- |
| B1 | > 3000 |
| B2 | 190 |
| B3 | > 3000 |
| B4 | 20 |
| B5 | 279 |
| B6 | 51.2 |
| B7 | 166 |
| B8 | > 3000 |
| B9 | > 3000 |
| B10 | 5.71 |
| B11 | 51.7 |
| AAAACAUGAGGAUCACCCAUGUAAA (ssRNA) [Eterna 1 (MS2 control)] | 12.8 |
| B12 | 77.6 |
| B13 | 463 |
| B14 | > 3000 |
| B15 | > 3000 |
| B16 | 974 |
| B17 | 15.7 |
| B18 | > 3000 |
| B19 | > 3000 |
| B20 | 44.9 |

| Binder | Kd [nM] |
| --- | --- |
| B21 | 368 |
| B22 | 18.5 |
| B23 | 34.2 |
| B24 | 92.3 |
| B25 | > 3000 |
| B26 | 208 |
| B27 | > 3000 |
| B28 | > 3000 |
| B29 | 12.2 |
| B30 | > 3000 |
| B31 | 68 |
| B32 | 5.95 |
| B33 | 14.7 |
| B34 | 6.05 |
| B35 | > 3000 |
| B36 | 166 |
| B37 | 5.01 |
| B38 | 19.2 |
| B39 | > 3000 |
| B40 | 13.8 |
| B41 | > 3000 |
